Measurements from patent publication US20140205597A1 (published 2014).

Columns and labels:
[1] = target: T1, purified interference factor(s) from serum of Donor A; assay: Biacore, immobilized interference factor
T1 construct: text names Donors 8, 19 and 30

[2] = target: T2, purified interference factor(s) from serum of Donor B; assay: Biacore, immobilized interference factor
T2 construct: text names Donors 8, 19 and 30

[3] = target: T3, monoclonal antibody 21-4-3; assay: Biacore, captured 21-4-3
T3 construct: mouse IgG1 heavy chain, kappa light chain; also called mAb21-4-3; produced by hybridoma ABH0015 (LMBP-9680-CB)
Description: Binding measurements were performed using a Biacore T100 using a CM5 T120416 sensor chip, with running buffer HBS-EP+, 25° C. […] The anti-mouse IgG used was a polyclonal rabbit anti-mouse IgG antibodies reacting with all IgG subclasses, IgA and IgM (GE Healthcare; Cat#BR-1008-38; Lot#10056316). Immobilisation of the anti-mouse IgG was performed using manual amine coupling using a 7 minute injection of EDC/NHS for activation and a 7 minute injection of 1M ethanolamine HCl pH 8.5 for deactivation (Biacore, amine coupling kit).

[4] = target: T4, purified interference factor(s) from serum of Donor C; assay: Biacore, immobilized interference factor
T4 construct: text names Donors 8, 19 and 30

B1: SEQ ID NO 42 (VHH)
chain: EVQLVESGGGLVQPGGSLRLSCAASGRTFSYNPMGWFRQAPGKGRELVAAISRTGGSTYYPDSVEGRFTISRDNAKRMVYLQMNSLRAEDTAVYYCAAAGVRAEDGRVRTLPSEYTFWGQGTQVTVSSAAAEVQLVESGGGLVQPGGSLRLSCAASGRTFSYNPMGWFRQAPGKGRELVAAISRTGGSTYYPDSVEGRFTISRDNAKRMVYLQMNSLRAEDTAVYYCAAAGVRAEDGRVRTLPSEYTFWGQGTQVTVSSA
notes: Nanobody construct; C-terminal: A
binding vs Reference Sequence (=100%) [1]: 1%
binding vs Reference Sequence (=100%) [2]: 4%
binding vs Reference Sequence (=100%) [3]: 0%

B2: SEQ ID NO 38 (bispecific antibody)
chain: EVQLVESGGGLVQPGGSLRLSCAASGFTFSSYAMSWVRQAPGKGLEWVSGIKSSGDSTRYAGSVKGRFTISRDNAKNTLYLQMNSLRPEDTAVYYCAKSRVSRTGLYTYDNRGQGTLVTVSSGGGGSGGGGSGGGGSGGGGSEVQLVESGGGLVQPGGSLRLSCAASGRTFNNYAMGWFRQAPGKEREFVAAITRSGVRSGVSAIYGDSVKDRFTISRDNAKNTLYLQMNSLRPEDTAVYYCAASAIGSGALRRFEYDYSGQGTLVTVSSA
notes: as for B1
binding vs Reference Sequence (=100%) [1]: 9%
binding vs Reference Sequence (=100%) [2]: 25%
binding vs Reference Sequence (=100%) [4]: 7%
binding vs Reference Sequence (=100%) [3]: 0%

B3: SEQ ID NO 45 (VHH)
VHH: EVQLVESGGGLVQAGGSLRLSCAASRSIGRLDRMGWYRHRTGEPRELVATITGGSSINYGDFVKGRFTISIDNAKNTVYLQMNNLKPEDTAVYYCNFNKYVTSRDTWGQGTQVTVSS
notes: mutations: P14A, P41T, S62F, S74A, S82bN, R83K, L108Q
binding vs Reference Sequence (=100%) [1]: 0%
binding vs Reference Sequence (=100%) [3]: 22%

B4: SEQ ID NO 71 (VHH)
VHH: EVQLVESGGGLVQPGGSLRLSCAASRSIGRLDRMGWYRHRPGEPRELVATITGGSSINYGDSVKGRFTISIDNSKNTVYLQMNSLRPEDTAVYYCNFNKYVTSRDTWGQGTLVTVSG
notes: S113G
binding vs Reference Sequence (=100%) [1]: 88%
binding vs Reference Sequence (=100%) [2]: 105%
binding vs Reference Sequence (=100%) [4]: 87%
binding vs Reference Sequence (=100%) [3]: 44%

B5: SEQ ID NO 46 (VHH)
VHH: EVQLVESGGGLVQAGGSLRLSCAASRSIGRLDRMGWYRHRTGEPRELVATITGGSSINYGDFVKGRFTISIDNAKNTVYLQMNNLKPEDTAVYYCNFNKYVTSRDTWGQGTQVTVSS
notes: C-terminal tag
binding vs Reference Sequence (=100%) [1]: 0%
binding vs Reference Sequence (=100%) [3]: 2%

B6: SEQ ID NO 69 (VHH)
VHH: EVQLVESGGGLVQPGGSLRLSCAASRSIGRLDRMGWYRHRPGEPRELVATITGGSSINYGDSVKGRFTISIDNSKNTVYLQMNSLRPEDTAVYYCNFNKYVTSRDTWGQGTQVTVSS
notes: L108Q
binding vs Reference Sequence (=100%) [1]: 80%
binding vs Reference Sequence (=100%) [2]: 120%
binding vs Reference Sequence (=100%) [4]: 84%
binding vs Reference Sequence (=100%) [3]: 106%

B7: SEQ ID NO 68 (VHH)
VHH: EVQLVESGGGLVQAGGSLRLSCAASRSIGRLDRMGWYRHRPGEPRELVATITGGSSINYGDSVKGRFTISIDNSKNTVYLQMNSLRPEDTAVYYCNFNKYVTSRDTWGQGTQVTVSS
notes: P14A, L108Q
binding vs Reference Sequence (=100%) [1]: 38%
binding vs Reference Sequence (=100%) [2]: 115%
binding vs Reference Sequence (=100%) [4]: 49%
binding vs Reference Sequence (=100%) [3]: 26%

B8: SEQ ID NO 78 (VHH)
VHH: EVQLVESGGGLVRPGGSLRLSCAASRSIGRLDRMGWYRHRPGEPRELVATITGGSSINYGDSVKGRFTISIDNSKNTVYLQMNSLRPEDTAVYYCNFNKYVTSRDTWGQGTLVTVSS
notes: Q13R
binding vs Reference Sequence (=100%) [1]: 96%
binding vs Reference Sequence (=100%) [2]: 96%
binding vs Reference Sequence (=100%) [4]: 100%
binding vs Reference Sequence (=100%) [3]: 1%

B9: SEQ ID NO 82 (VHH)
VHH: EVQLVESGGGLVQPGGSLRLSCAASRSIGRLDRMGWYRHRPGEPRELVATITGGSSINYGDSVKGRFTISIDNSKNTVYLQMNSLRAEDTAVYYCNFNKYVTSRDTWGQGTLVTVSS
notes: P84A
binding vs Reference Sequence (=100%) [1]: 96%
binding vs Reference Sequence (=100%) [2]: 80%
binding vs Reference Sequence (=100%) [4]: 100%
binding vs Reference Sequence (=100%) [3]: 56%

B10: SEQ ID NO 80 (VHH)
VHH: EVQLVESGGGLVQPGGSLRLSCAASRSIGRLDRMGWYRHRPGEPRELVATITGGSSINYGDSVKGRFTISIDNSKNTVYLQMNSLRPEDTAVYYCNFNKYVTSRDTWGQGTLVQVGG
notes: T110Q, S112G, S113G
binding vs Reference Sequence (=100%) [1]: 65%
binding vs Reference Sequence (=100%) [2]: 5%
binding vs Reference Sequence (=100%) [4]: 58%
binding vs Reference Sequence (=100%) [3]: 51%

B11: SEQ ID NO 81 (VHH)
VHH: EVQLVESGGGVVQPGGSLRLSCAASRSIGRLDRMGWYRHRPGEPRELVATITGGSSINYGDSVKGRFTISIDNSKNTVYLQMNSLRPEDTAVYYCNFNKYVTSRDTWGQGTLVTVSS
notes: L11V
binding vs Reference Sequence (=100%) [1]: 94%
binding vs Reference Sequence (=100%) [2]: 50%
binding vs Reference Sequence (=100%) [4]: 89%
binding vs Reference Sequence (=100%) [3]: 75%

B12: SEQ ID NO 66 (VHH)
VHH: EVQLVESGGGSVQPGGSLRLSCAASRSIGRLDRMGWYRHRPGEPRELVATITGGSSINYGDSVKGRFTISIDNSKNTVYLQMNSLRPEDTAVYYCNFNKYVTSRDTWGQGTLVTVSS
notes: L11S
binding vs Reference Sequence (=100%) [1]: 81%
binding vs Reference Sequence (=100%) [2]: 29%
binding vs Reference Sequence (=100%) [4]: 84%
binding vs Reference Sequence (=100%) [3]: 48%

B13: SEQ ID NO 67 (VHH)
VHH: EVQLVESGGGLVQPGGSLRLSCAASRSIGRLDRMGWYRHRPGEPRELVATITGGSSINYGDSVKGRFTISIDNSKNTVYLQMNSLKPEDTAVYYCNFNKYVTSRDTWGQGTLVTVSS
notes: R83K
binding vs Reference Sequence (=100%) [1]: 102%
binding vs Reference Sequence (=100%) [2]: 117%
binding vs Reference Sequence (=100%) [4]: 96%
binding vs Reference Sequence (=100%) [3]: 101%

B14: SEQ ID NO 72 (VHH)
VHH: EVQLVESGGGLVQPGGSLRLSCAASRSIGRLDRMGWYRHRPGEPRELVATITGGSSINYGDSVKGRFTISIDNSKNTVYLQMNSLRPEDTAVYYCNFNKYVTSRDTWGQGTLVTVGG
notes: S112G, S113G
binding vs Reference Sequence (=100%) [1]: 70%
binding vs Reference Sequence (=100%) [2]: 47%
binding vs Reference Sequence (=100%) [4]: 56%
binding vs Reference Sequence (=100%) [3]: 45%

B15: SEQ ID NO 70 (VHH)
VHH: EVQLVESGGGLVQPGGSLRLSCAASRSIGRLDRMGWYRHRPGEPRELVATITGGSSINYGDSVKGRFTISIDNSKNTVYLQMNSLRPEDTAVYYCNFNKYVTSRDTWGQGTLVQVSS
notes: T110Q
binding vs Reference Sequence (=100%) [1]: 90%
binding vs Reference Sequence (=100%) [2]: 105%
binding vs Reference Sequence (=100%) [4]: 98%
binding vs Reference Sequence (=100%) [3]: 106%

B16: SEQ ID NO 83 (VHH)
VHH: EVQLVESGGGLVQPGGSLRLSCAASRSIGRLDRMGWYRHRPGEPRELVATITGGSSINYGDSVKGRFTISIDNSKNTVYLQMNSLRPEDAAVYYCNFNKYVTSRDTWGQGTLVTVSS
notes: T87A
binding vs Reference Sequence (=100%) [1]: 56%
binding vs Reference Sequence (=100%) [2]: 73%
binding vs Reference Sequence (=100%) [4]: 61%
binding vs Reference Sequence (=100%) [3]: 79%

B17: SEQ ID NO 65 (VHH)
VHH: EVQLVESGGGLVQAGGSLRLSCAASRSIGRLDRMGWYRHRPGEPRELVATITGGSSINYGDSVKGRFTISIDNSKNTVYLQMNSLRPEDTAVYYCNFNKYVTSRDTWGQGTLVTVSS
notes: P14A
binding vs Reference Sequence (=100%) [1]: 73%
binding vs Reference Sequence (=100%) [2]: 121%
binding vs Reference Sequence (=100%) [4]: 64%
binding vs Reference Sequence (=100%) [3]: 23%

B18: SEQ ID NO 84 (VHH)
VHH: EVQLVESGGGLVQPGGSLRLSCAASRSIGRLDRMGWYRHRPGEPRELVATITGGSSINYGDSVKGRFTISIDNSKNTVYLQMNSLRPEDTAVYYCNFNKYVTSRDTWGQGTLVTVGS
notes: S112G
binding vs Reference Sequence (=100%) [1]: 84%
binding vs Reference Sequence (=100%) [2]: 50%
binding vs Reference Sequence (=100%) [4]: 83%
binding vs Reference Sequence (=100%) [3]: 91%

B19: SEQ ID NO 47 (VHH)
VHH: EVQLVESGGGLVQPGGSLRLSCAASGSVFKINVMAWYRQAPGKGRELVAGIISGGSTSYADSVKGRFTISRDNAKNTLYLQMNSLRPEDTAVYYCAFITTESDYDLGRRYWGQGTLVTVSS
binding vs Reference Sequence (=100%) [1]: 1%
binding vs Reference Sequence (=100%) [3]: 4%

B20: SEQ ID NO 48 (VHH)
VHH: EVQLVESGGGLVQPGGSLRLSCIASGLPFSTKSMGWFRQAPGKEREFVARISPGGTSRYYGDFVKGRFAISRDNAKNTTWLQMNSLKAEDTAVYYCASGERSTYIGSNYYRTNEYDYWGTGTQVTVSS
binding vs Reference Sequence (=100%) [1]: 0%
binding vs Reference Sequence (=100%) [3]: 3%

B21: SEQ ID NO 49 (VHH)
VHH: EVQLLESGGGLVQPGGSLRLSCAASGLPFSTKSMGWFRQAPGKGREFVSRISPGGTSRYYGDFVKGRFTISRDNSKNTLYLQMNSLRAEDTAVYYCASGERSTYIGSNYYRTNEYDYWGQGTLVTVSS
notes: C-terminal tag plus humanizing mutations
binding vs Reference Sequence (=100%) [1]: 0%
binding vs Reference Sequence (=100%) [3]: 4%

B22: SEQ ID NO 43 (bispecific antibody)
chain: DVQLVESGGGLVQPGGSLRLSCAASGFILDYYAIGWFRQAPGKEREGVLCIDASDDITYYADSVKGRFTISRDNSKNTVYLQMNSLRPEDTAVYYCATPIGLSSSCLLEYDYDYWGQGTLVTVSSGGGGSGGGSEVQLLESGGGLVQPGGSLRLSCAASGFTFRSFGMSWVRQAPGKGPEWVSSISGSGSDTLYADSVKGRFTISRDNSKNTLYLQMNSLRPEDTAVYYCTIGGSLSRSSQGTLVTVSSA
notes: as for B1
binding vs Reference Sequence (=100%) [1]: 3%
binding vs Reference Sequence (=100%) [2]: 20%
binding vs Reference Sequence (=100%) [3]: 3%
